Data reported in patent US5508261.

Tests used:
[1] = molecular target: bovine testes FSH receptors (bovine) (UniProt P35376); assay: inhibition of 125I-hFSH binding to bovine testes FSH receptors
[2] = molecular target: rat luteal ovarian LH receptors (rat) (UniProt P16235); assay: inhibition of 125I-hCG binding to rat luteal ovarian LH receptors

An activity relative to hFSH (FSH RECEPTORS; ratio of concentrations for 50% inhibition) (relative to recombinant hFSH) [1] of 0.18 and an activity relative to hCG (LH RECEPTORS; ratio of concentrations for 50% inhibition) (relative to recombinant hCG) [2] of 0.53 were found for eCG (ligand) in this work.
